T1: FZD4 CRD (Homo sapiens, UniProt Q9ULV1)
T1 construct: E42-V167; GPI anchor signal (C); expressed in transfected cells; host or cells: CHO cells, lentiviral pLenti-puro
T1 sequence (Q9ULV1 42-167): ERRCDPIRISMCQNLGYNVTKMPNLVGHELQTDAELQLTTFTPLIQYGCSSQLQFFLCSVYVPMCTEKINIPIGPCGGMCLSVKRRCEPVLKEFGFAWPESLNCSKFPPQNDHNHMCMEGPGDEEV

T2: FZD5 CRD (Homo sapiens, UniProt Q13467)
T2 construct: K29-T156; GPI anchor signal (C); expressed in transfected cells; host or cells: CHO cells, lentiviral pLenti-puro
T2 sequence (Q13467 29-156): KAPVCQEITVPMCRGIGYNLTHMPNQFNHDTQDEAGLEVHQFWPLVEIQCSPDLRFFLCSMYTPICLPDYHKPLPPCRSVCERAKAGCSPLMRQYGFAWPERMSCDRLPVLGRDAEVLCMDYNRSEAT

T3: FZD3 CRD (Homo sapiens, UniProt Q9NPG1)
T3 construct: CRD of FZD1, FZD2, FZD3, FZD4, FZD5, FZD6, FZD7, FZD8, FZD9 or FZD10; GPI anchor signal (C); expressed in transfected cells; host or cells: CHO cells, lentiviral pLenti-puro
T3 sequence (Q9NPG1 23-136 limits assumed): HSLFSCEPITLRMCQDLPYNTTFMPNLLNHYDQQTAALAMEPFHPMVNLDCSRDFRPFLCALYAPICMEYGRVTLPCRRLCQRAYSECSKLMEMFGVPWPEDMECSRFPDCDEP

T4: FZD6 CRD (Homo sapiens, UniProt O60353)
T4 construct: S20-P146; GPI anchor signal (C); expressed in transfected cells; host or cells: CHO cells, lentiviral pLenti-puro
T4 sequence (O60353 20-146): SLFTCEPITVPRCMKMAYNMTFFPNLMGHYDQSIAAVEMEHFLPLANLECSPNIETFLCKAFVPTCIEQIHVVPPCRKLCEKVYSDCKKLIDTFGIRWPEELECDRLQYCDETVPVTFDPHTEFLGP


How the values were obtained:
ASPC-1 cells [1] = assay: Effect of anti-FZD5 Fabs on proliferation of pancreatic cancer cell lines (percent growth inhibition); assay type: cell-based, human; conditions: Fab 2 μg/ml
RWP1 cells [2] = assay: as above; assay type: cell-based, human; conditions: Fab 2 μg/ml
ASPC-1 cells [3] = assay: as above; assay type: cell-based, human; conditions: Fab 10 μg/ml
Description: (§1) The effect of presently disclosed anti-FZD5 Fabs on proliferation of RNF43 loss-of-function mutant pancreatic cancer cell lines HPAFII, PATU8988S and ASPC-1; and on pancreatic cancer cell line RWP1, was tested at […] and 10 μg/ml.

HPAFII cells = assay: as above; assay type: cell-based, human; conditions: for percent growth inhibition, HPAFII 2 μg/ml: Fab 2 μg/ml; for percent growth inhibition, HPAFII 10 μg/ml: Fab 10 μg/ml
Description: as §1

RWP1 cells [4] = assay: as above; assay type: cell-based, human; conditions: Fab 10 μg/ml
Description: as §1

PATU8988S cells = assay: as above; assay type: cell-based, human; conditions: Fab 10 μg/ml
Description: as §1

FZD4 CRD = molecular target: T1, FZD4 CRD; assay: Immunofluorescence of anti-FZD5 Fab binding to CHO cells overexpressing Frizzled CRD; design: key: −: no binding; +: very weak binder; ++: weak binder; +++: good binder; ++++: very good binder
Description: (§2) Plasmids: pLCKO lentiviral vector used for knockout (TKO) library construction and expression of individual gRNAs was constructed as described previously (Hart et al., 2015). Briefly, single guide RNA (sgRNA) scaffold was amplified from px330 (Addgene 42230) and cloned into pLKO.TRC005 lentiviral vector (Broad Institute, Cambridge, Mass.) using AgeI/EcoRI restriction sites. BfuAI sites were added at the 5′ end of the sgRNA scaffold for cloning the TKO library or individual gRNA target sequences. Lenti Cas9-2A-BsdR vector used to generate Cas9 stable expression cell lines was constructed as described previously (Hart et al., 2015). Briefly, lentiCRISPR pXPR_001 (Addgene 49535) was modified through removal of the sgRNA scaffold region through NdeI/EcoRI digest and blunt ends generation using Large Klenow Fragment (NEB). 2A-puro was replaced with 2A-BsdR by PCR using the NheI/MluI sites. Each of the 10 human Frizzled cysteine rich domains (CRDs) were cloned into the lentiviral expression plasmid pLenti-puro in the following cassette: FZD_CRD-MYC-GPI.
(§3) To confirm that the FZD5-WNT7B circuit is not driven simply by expression and rule out the possibility of a disconnect between RNA and protein levels for the Wnt receptors in HPAF-II cells, a panel of recombinant Fabs were generated, alternatively referred to herein as ‘Frizzled profiler’, that can detect and discriminate all but one of the ten Frizzled receptors. […] To characterize the binding specificity of these Fabs on cells, a panel of 10 CHO cell lines was generated, each expressing the CRD domain of a different myc-tagged Frizzled family member anchored at the plasma membrane through a GPI anchor (CHO-myc-FZDGPI). Despite the high sequence identity between Frizzled family members (FIG. 7A, FIG. 7B), selective Fabs were identified for FZD4, FZD5, FZD6 and FZD10 as assessed by immunofluorescence and flow cytometry (FIG. 7D and FIG. 8). […] The FZD8 CRD is most homologous to that of FZD5 (FIG. 7B). These Fabs can be used to discriminate expression of FZD1, FZD2, FZD4, FZD5, FZD6, FZD7, FZD8, FZD9 and FZD10 (FIG. 7D and FIG. 8). The ‘Frizzled profiler’ therefore consists of 10 different Fabs that can be used to discriminate expression of 9 different Frizzled family members. The Frizzled profiler was then used to confirm that HPAF-II cells express FZD1, FZD5, FZD6 and possibly FZD8 (FIG. 7E).
(§4) The binding of anti-FZD5 Fabs to cell surface-expressed Frizzled protein was further determined for each member of the Frizzled family via flow cytometry and immunofluorescence analysis of a panel of 10 CHO cell lines, each ectopically over-expressing the extracellular cysteine-rich domain (CRD) of a different Frizzled protein family member.

FZD5 CRD = molecular target: T2, FZD5 CRD; assay: as above; design: key: −: no binding; +: very weak binder; ++: weak binder; +++: good binder; ++++: very good binder
Description: as §2, §3, §4

FZD3 CRD = molecular target: T3, FZD3 CRD; assay: as above; design: key: −: no binding; +: very weak binder; ++: weak binder; +++: good binder; ++++: very good binder
Description: as §2, §3, §4

FZD6 CRD = molecular target: T4, FZD6 CRD; assay: as above; design: key: −: no binding; +: very weak binder; ++: weak binder; +++: good binder; ++++: very good binder
Description: as §2, §3, §4

FZD1 CRD = molecular target: T5, FZD1 CRD (Homo sapiens, UniProt Q9UP38); assay: as above; design: key: −: no binding; +: very weak binder; ++: weak binder; +++: good binder; ++++: very good binder
T5 construct: D112-P238; GPI anchor signal (C); expressed in transfected cells; host or cells: CHO cells, lentiviral pLenti-puro
Description: as §2, §3, §4

Row | Molecule | percent growth inhibition, ASPC-1 2 μg/ml (ASPC-1 cells [1]) | percent growth inhibition, RWP1 2 μg/ml (RWP1 cells [2]) | percent growth inhibition, ASPC-1 10 μg/ml (ASPC-1 cells [3]) | percent growth inhibition, HPAFII 2 μg/ml (HPAFII cells) | percent growth inhibition, HPAFII 10 μg/ml (HPAFII cells) | percent growth inhibition, RWP1 10 μg/ml (RWP1 cells [4]) | percent growth inhibition, PATU8988s 10 μg/ml (PATU8988S cells) | Immunofluorescence binding, Frizzled CRD overexpressed on CHO cells: FZD4 (FZD4 CRD) | Immunofluorescence binding, Frizzled CRD overexpressed on CHO cells: FZD5 (FZD5 CRD) | Immunofluorescence binding, Frizzled CRD overexpressed on CHO cells: FZD3 (FZD3 CRD) | Immunofluorescence binding, Frizzled CRD overexpressed on CHO cells: FZD6 (FZD6 CRD) | Immunofluorescence binding, Frizzled CRD overexpressed on CHO cells: FZD1 (FZD1 CRD)
1 | Fab-2907: anti-FZD5 Fab with antibody variable region Fv-2907; CDR SEQ ID NOs: 35, 36, 46, 85, 122, 159 (antibody, V domains shown) VH: EVQLVESGGGLVQPGGSLRLSCAASGFNIYSSYMHWVRQAPGKGLEWVASISSYSGSTYYADSVKGRFTISADTSKNTAYLQMNSLRAEDTAVYYCARSSWGAYIVSYGFDYWGQGTLVTVSS VL: DIQMTQSPSSLSASVGDRVTITCRASQSVSSAVAWYQQKPGKAPKLLIYSASSLYSGVPSRFSGSRSGTDFTLTISSLQPEDFATYYCQQVGYWWGLITFGQGTKVEIK | 10.02% | 8.52% | 23.78% | 15.15% | 14.20% | 28.57% | −42.69% | − | ++++ | − | − | −
2 | Fab-2909: anti-FZD5 Fab with antibody variable region Fv-2909; CDR SEQ ID NOs: 35, 36, 48, 87, 124, 161 (antibody, V domains shown) VH: EVQLVESGGGLVQPGGSLRLSCAASGFNISSSYMHWVRQAPGKGLEWVASISSSSGYTSYADSVKGRFTISADTSKNTAYLQMNSLRAEDTAVYYCARTVRGSKKPYFSGWAMDYWGQGTLVTVSS VL: DIQMTQSPSSLSASVGDRVTITCRASQSVSSAVAWYQQKPGKAPKLLIYSASSLYSGVPSRFSGSRSGTDFTLTISSLQPEDFATYYCQQSWSYHYLITFGQGTKVEIK | −6.84% | 12.89% | −9.30% | 2.87% | −2.57% | 14.89% | −16.04% | − | +++ | − | − | −
3 | Fab-2910: anti-FZD5 Fab with antibody variable region Fv-2910; CDR SEQ ID NOs: 35, 36, 49, 88, 125, 162 (antibody, V domains shown) VH: EVQLVESGGGLVQPGGSLRLSCAASGFNISYSYMHWVRQAPGKGLEWVASIYSSSSSTSYADSVKGRFTISADTSKNTAYLQMNSLRAEDTAVYYCARGAMDYWGQGTLVTVSS VL: DIQMTQSPSSLSASVGDRVTITCRASQSVSSAVAWYQQKPGKAPKLLIYSASSLYSGVPSRFSGSRSGTDFTLTISSLQPEDFATYYCQQWYGSHLITFGQGTKVEIK | 39.05% | 71.49% | 41.71% | 26.86% | 41.81% | 54.51% | −12.84% | − | ++++ | − | − | −
4 | Fab-2912: anti-FZD5 Fab with antibody variable region Fv-2912; CDR SEQ ID NOs: 35, 36, 51, 90, 127, 164 (antibody, V domains shown) VH: EVQLVESGGGLVQPGGSLRLSCAASGFNISYSYIHWVRQAPGKGLEWVASISSSSGYTSYADSVKGRFTISADTSKNTAYLQMNSLRAEDTAVYYCARTVRGSKKPYFSGWAMDYWGQGTLVTVSS VL: DIQMTQSPSSLSASVGDRVTITCRASQSVSSAVAWYQQKPGKAPKLLIYSASSLYSGVPSRFSGSRSGTDFTLTISSLQPEDFATYYCQQFYFPYLITFGQGTKVEIK | 6.93% | 15.55% | 1.76% | 7.76% | −5.41% | 27.25% | −25.71% | ++ | +++ | − | − | +

Source: US20210253718A1, “FRIZZLED5 PROTEIN-BINDING AGENTS” (Modmab Therapeutics Corporation, priority 2016, published 2021)
